Data on 66 substances can be found in patent publication US20170002055A1, “Novel peptides and combination of peptides for use in immunotherapy against ovarian cancer and other cancers” (immatics biotechnologies GmbH, priority 2015, published 2017).

In the assay the target is HLA-A*02:01 (Homo sapiens, UniProt P04439, D140Y/D185E/D98H/E176V/E277Q/G131W/G231S/I119V/I121R/I166T/I218V/L300P/L318F/N151K/N90K/P208A/P217A/Q86G/Q94H/R138H/R169H/T345S). Briefly: MHC binding assay (UV-ligand exchange, β2m ELISA, peptide exchange yield). The note with it: MHC class I binding score; binding to HLA-A*02:01 ranged by peptide exchange yield (UV-ligand exchange, β2m ELISA). The source says: Candidate peptides for T cell based therapies according to the present invention were further tested for their MHC binding capacity (affinity). The individual peptide-MHC complexes were produced by UV-ligand exchange, where a UV-sensitive peptide is cleaved upon UV-irradiation, and exchanged with the peptide of interest as analyzed. Only peptide candidates that can effectively bind and stabilize the peptide-receptive MHC molecules prevent dissociation of the MHC complexes. To determine the yield of the exchange reaction, an ELISA was performed based on the detection of the light chain (β2m) of stabilized MHC complexes. The assay was performed as generally described in Rodenko et al. (Rodenko et al., 2006).
96 well MAXISorp plates (NUNC) were coated over night with 2 ug/ml streptavidin in PBS at room temperature, washed 4× and blocked for 1h at 37° C. in 2% BSA containing blocking buffer. […] Peptide-MHC monomers of the UV-exchange reaction were diluted 100 fold in blocking buffer. Samples were incubated for 1h at 37° C., washed four times, incubated with 2 ug/ml HRP conjugated anti-β2m for 1h at 37° C., washed again and detected with TMB solution that is stopped with […]. Absorption was measured at 450 nm. Candidate peptides that show a high exchange yield (preferably higher than 50%, most preferred higher than 75%) are generally preferred for a generation and production of antibodies or fragments thereof, and/or T cell receptors or fragments thereof, as they show sufficient avidity to the MHC molecules and prevent dissociation of the MHC complexes.
A general note: ELISA stands for enzyme-linked immunosorbent assay.
For the substance “1 (SLMEPPAVLLL; listed as Homo sapiens) [compound 1]”, the Peptide exchange entry was ““+++” (≧50 = +++)”. Then “4 (GIMEHITKI; listed as Homo sapiens) [compound 4]”, with ““++++” (≧75% = ++++)”; and “6 (VLVSDGVHSV; listed as Homo sapiens) [compound 6]”, with ““+++” (≧50 = +++)”; and “9 (GAAKDLPGV; listed as Homo sapiens) [compound 9]”, with ““++” (≧20% = ++)”. To “10 (FLATFPLAAV; listed as Homo sapiens) [compound 10]” belongs ““++++” (≧75% = ++++)”; to “12 (SLWPDPMEV; listed as Homo sapiens) [compound 12]”, ““+++” (≧50 = +++)”.

Turning to “13 (YLMDESLNL; listed as Homo sapiens) [compound 13]”, the Peptide exchange result was ““+++” (≧50 = +++)”. For the substance “14 (AAYGGLNEKSFV; listed as Homo sapiens) [compound 14]”, the Peptide exchange result was ““+++” (≧50 = +++)”. As to “15 (VLLTFKIFL; listed as Homo sapiens) [compound 15]”, the Peptide exchange entry is given as ““++” (≧20% = ++)”. To “16 (VLFQGQASL; listed as Homo sapiens) [compound 16]” belongs ““+++” (≧50 = +++)”; to “18 (YLVAKLVEV; listed as Homo sapiens) [compound 18]”, ““++” (≧20% = ++)”; to “20 (RMIEYFIDV; listed as Homo sapiens) [compound 20]”, ““+++” (≧50 = +++)”. In the case of “21 (VLDELDMEL; listed as Homo sapiens) [compound 21]”, the Peptide exchange entry is ““++” (≧20% = ++)”. Then “22 (IMEENPGIFAV; listed as Homo sapiens) [compound 22]”, with ““+++” (≧50 = +++)”. To “23 (VLLDDIFAQL; listed as Homo sapiens) [compound 23]” belongs ““+++” (≧50 = +++)”; to “24 (SLSDGLEEV; listed as Homo sapiens) [compound 24]”, ““++” (≧20% = ++)”; to “25 (FLPDEPYIKV; listed as Homo sapiens) [compound 25]”, ““+++” (≧50 = +++)”.

Take “26 (ALLELAEEL; listed as Homo sapiens) [compound 26]”: the Peptide exchange result is ““+++” (≧50 = +++)”. With “27 (ILADIVISA; listed as Homo sapiens) [compound 27]”, the Peptide exchange entry was ““+++” (≧50 = +++)”. Then “28 (QLLDETSAITL; listed as Homo sapiens) [compound 28]”, with ““+++” (≧50 = +++)”. Then “29 (KMLGIPISNILMV; listed as Homo sapiens) [compound 29]”, with ““+++” (≧50 = +++)”; and “30 (LILDWVPYI; listed as Homo sapiens) [compound 30]”, with ““+++” (≧50 = +++)”. For the substance “31 (YLAPELFVNV; listed as Homo sapiens) [compound 31]”, the Peptide exchange entry was ““++” (≧20% = ++)”. Then “32 (KLDDLTQDLTV; listed as Homo sapiens) [compound 32]”, with ““++” (≧20% = ++)”; and “33 (VLLSLLEKV; listed as Homo sapiens) [compound 33]”, with ““++” (≧20% = ++)”. Take “34 (ILVEADSLWVV; listed as Homo sapiens) [compound 34]”: the Peptide exchange result is on record as ““+++” (≧50 = +++)”. To “35 (KINDTIYEV; listed as Homo sapiens) [compound 35]” belongs ““+++” (≧50 = +++)”; to “39 (SVAPNLPAV; listed as Homo sapiens) [compound 39]”, ““+++” (≧50 = +++)”; to “41 (SLMPHIPGL; listed as Homo sapiens) [compound 41]”, ““+++” (≧50 = +++)”. To “42 (VLLQKIVSA; listed as Homo sapiens) [compound 42]” belongs ““+++” (≧50 = +++)”; to “43 (VLSSLEINI; listed as Homo sapiens) [compound 43]”, ““++” (≧20% = ++)”; to “44 (ILDPISSGFLL; listed as Homo sapiens) [compound 44]”, ““++” (≧20% = ++)”. Then “45 (SLWQDIPDV; listed as Homo sapiens) [compound 45]”, with ““+++” (≧50 = +++)”; and “46 (ILTEENIHL; listed as Homo sapiens) [compound 46]”, with ““+++” (≧50 = +++)”.

With “47 (ILLSVPLLVV; listed as Homo sapiens) [compound 47]”, the Peptide exchange result is recorded as ““++” (≧20% = ++)”.

As for “50 (SLSELEALM; listed as Homo sapiens) [compound 50]”, the Peptide exchange result is on record as ““+++” (≧50 = +++)”. Then “51 (LLPDLEFYV; listed as Homo sapiens) [compound 51]”, with ““++++” (≧75% = ++++)”. Then “52 (FLLAHGLGFLL; listed as Homo sapiens) [compound 52]”, with ““++++” (≧75% = ++++)”. To “53 (KMIETDILQKV; listed as Homo sapiens) [compound 53]” belongs ““++++” (≧75% = ++++)”. In the case of “54 (SLLEQGKEPWMV; listed as Homo sapiens) [compound 54]”, the Peptide exchange result is ““+++” (≧50 = +++)”. To “55 (SLLDLETLSL; listed as Homo sapiens) [compound 55]” belongs ““++++” (≧75% = ++++)”. Then “57 (TLAELQPPVQL; listed as Homo sapiens) [compound 57]”, with ““+++” (≧50 = +++)”; and “59 (IMEDIILTL; listed as Homo sapiens) [compound 59]”, with ““+++” (≧50 = +++)”; and “62 (VLLDVSAGQLLM; listed as Homo sapiens) [compound 62]”, with ““++++” (≧75% = ++++)”.

On to “63 (YLLPSGGSVTL; listed as Homo sapiens) [compound 63]”, for which the Peptide exchange entry is given as ““++” (≧20% = ++)”.

In the case of “64 (YAAPGGLIGV; listed as Homo sapiens) [compound 64]”, the Peptide exchange entry is given as ““++” (≧20% = ++)”.

As to “66 (FLDENIGGVAV; listed as Homo sapiens) [compound 66]”, the Peptide exchange entry was ““+++” (≧50 = +++)”. “67 (TLLAEALVTV; listed as Homo sapiens) [compound 67]”: the Peptide exchange entry is ““+++” (≧50 = +++)”. Then “68 (SLMELPRGLFL; listed as Homo sapiens) [compound 68]”, with ““++++” (≧75% = ++++)”; and “69 (FQLDPSSGVLVTV; listed as Homo sapiens) [compound 69]”, with ““+++” (≧50 = +++)”.

In the case of “70 (GLLDYPVGV; listed as Homo sapiens) [compound 70]”, the Peptide exchange entry is reported as ““+++” (≧50 = +++)”. To “71 (GILARIASV; listed as Homo sapiens) [compound 71]” belongs ““+++” (≧50 = +++)”; to “72 (SLLELDGINL; listed as Homo sapiens) [compound 72]”, ““+++” (≧50 = +++)”; to “73 (NIFDLQIYV; listed as Homo sapiens) [compound 73]”, ““+++” (≧50 = +++)”. Consider “74 (ALLDPEVLSIFV; listed as Homo sapiens) [compound 74]”, for which the Peptide exchange result is on record as ““+++” (≧50 = +++)”. Then “75 (GLLEVMVNL; listed as Homo sapiens) [compound 75]”, with ““+++” (≧50 = +++)”; and “76 (ILIDSIYKV; listed as Homo sapiens) [compound 76]”, with ““+++” (≧50 = +++)”. To “77 (ILVEADGAWVV; listed as Homo sapiens) [compound 77]” belongs ““++++” (≧75% = ++++)”; to “78 (SLFSSLEPQIQPV; listed as Homo sapiens) [compound 78]”, ““+++” (≧50 = +++)”.

For “80 (FLYDNLVESL; listed as Homo sapiens) [compound 80]”, the Peptide exchange entry is on record as ““++” (≧20% = ++)”.

With “81 (FLFSQLQYL; listed as Homo sapiens) [compound 81]”, the Peptide exchange result was ““++” (≧20% = ++)”.

Take “82 (FLSSVTYNL; listed as Homo sapiens) [compound 82]”: the Peptide exchange result is given as ““+++” (≧50 = +++)”. Take “83 (ILAPTVMMI; listed as Homo sapiens) [compound 83]”: the Peptide exchange result is ““+++” (≧50 = +++)”. Regarding “84 (VTFGEKLLGV; listed as Homo sapiens) [compound 84]”, the Peptide exchange result was ““++” (≧20% = ++)”. For “85 (KMSELRVTL; listed as Homo sapiens) [compound 85]”, the Peptide exchange result is given as ““+++” (≧50 = +++)”. Then “86 (NLIGKIENV; listed as Homo sapiens) [compound 86]”, with ““+++” (≧50 = +++)”.
